From the nanobody polyreactivity screen of Harvey et al. (2022) come the findings set out here.

This data set is described as follows: yeast display, Sf9 membrane polyspecificity reagent, FACS + sequencing; frameworks hold sequencing errors. In short, it runs like this:
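In a synthetic yeast display library (Saccharomyces cerevisiae BJ5465), nanobody expression was induced with galactose for 36–48 hours. FACS gates were set low and high (top ~1%) using anti-HA fluorescence for expression and streptavidin fluorescence for binding of the Sf9 membrane reagent. Each polyreactivity label is drawn from the gate of origin.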
With “QVQLVESGGGLVQAGGSLRLSCAASGRTFWYYAMGWNRQAPGKERELVAAITRGTSTYADSVKGRFTISRDNAKNTVYLQMNSLKPEDTAVFYCAADTWVTRNSRYDYWGQGTQVTVSS”, the “polyreactivity (PSR sort gate)” value is recorded as “high polyreactivity”.
“QVQLVESGGGLVQAGGSLRLSCAASGFILYSYAMGWSRQAPGKEREFVSVISRGGGRTYYADSVKGRFTISRDNAKNTVYLQMNSLKPEDTAVYYCAAGSRSPHWYTRELDYWGQGTQVTVSS”: the “polyreactivity (PSR sort gate)” value was “low polyreactivity”.
With “QVQLVESGGGLVQAGGSLRLSCAASGSIFKYYAMGWYRQAPGKERELVAAITWSGTRTYYADSVKGRFTISRDNAKNTVYLQMNSLKPEDTAVYYCNAPRYLYSAGRFNYWGQGTQVTVSS”, the “polyreactivity (PSR sort gate)” value is “high polyreactivity”.
Consider “QVQLVESGGGLVQAGGSLRLSCAASGSTIGRNAMGWDRQAPGNERELVASITDSSGSPNYADSVKGRFTISRDNAKNSVYLQMHSLKPEDTAVYYCATGYYYYTRYRYHTKYYSWGQGTQVTVSS”, for which the “polyreactivity (PSR sort gate)” value was “high polyreactivity”.
For “QVQLVESGGGLVQAGGSLRLSCAASGFTFSTYAMGWYRQAPGKEREFVAAISRGGTRTYYADSVKGRFTISRDNAKNTVYLQMTSLKPEDTAVYYCAARSKARNGYDYWGQGTQVTVSS”, the “polyreactivity (PSR sort gate)” value is reported as “high polyreactivity”.
To “QVQRVESGGGLVQAGGSLRLSCAASGITIYHYAMGCYRQAPGKERELVAAISRSGGSTSYADSVKGRFTISRDNAKNTVYLQMNSLKPEDTAVYYFAARLVRESDPLGYWGQGTQVTVSS” belongs “high polyreactivity”.
For the sequence “QVQLQESGGGLVQAGGSLRLSCAASGSIFVSVTMGWYRQAPGKERELVASIGRGSTTNHADSVKGRFTISRDNAKNIVYLLMNSLKPEDTAVYYCASLESYGKYHGYWGQGTQVTVSS”, the “polyreactivity (PSR sort gate)” value is “low polyreactivity”.
To “QVQLLESGGGLVQAGGRLRLSCAPSGRSIRYYTMGWYRQAPGKERELVAAISRSGDSTYYADSVKGRFTISRDNEKNTVYVQLKCLIPVDTAVYYCAASLVYQFCYDYWGQGTQVSVSS” belongs “high polyreactivity”; to “QVQLVESGGGLVQAGGSLRLSCAASGIFFGGYYLGWYRQAPATEMELVAGIRSGGSTYYADSVKGRFTISRDNAKNTVYLQMNSLKPEDTAVYYCAKPYYWGDYSQSDSDYWGQGTQVTVSS”, “low polyreactivity”.
“QVQLVESGGGLVQAGGSHRLSCAASGRTFWKYVMGWYRQAPGTERELVAVISRPAGSTYYADSVKGRFTISRHNEKNTVYLQMNSLKPEDTAVYYCAKRPKNKPVLGDYDHWGQGTQVTVSS”: the “polyreactivity (PSR sort gate)” value is on record as “low polyreactivity”.
To “QVQLVESGGGLVQAGGSLRLSCAASGRIFTYYAMGWYRQAPGKERELVASITGSGGSTDYADSVKGRFTISLDNAKNTVYLQMNSLKPEDTAVYYCAADHSGVSRYDYWGQGTQVTVSS” belongs “low polyreactivity”; to “QVQLVESGGGLVQAGGSLRLSCAASGRIFYYYPMGWYRQAPGKEMELVARITGLTGRTYYADSVKGRFTISRDNSKNTVYLHMHSLKPQDTAVYYCAATDRWSRLGYWGQGTQVTVSS”, “high polyreactivity”.
Turning to “QVLLVESGGGLVQAGGSLRLSCAASGRIFDDYAMGWYRQAPGKESELVAAITSGGRTYYADSVKGRFTISRDNAKNTVYLKMHSLKPDDTAVYYCAAQYGWFYEFVYWGQGTPVTVSS”, the “polyreactivity (PSR sort gate)” value is given as “high polyreactivity”.
With “QVQLVESGGGLVQAGCSLRLSCAASGLIFAVYTMGWYRQAPGKERELVAAITRRSTRTYYADSVKGRFTNSRDNAKNTVYLQMNSLKPEDTAVYYCAADRGSSGAAFEYWGQGTQVTVSS” the entry was “low polyreactivity”; with “QVQLVESGGGLVQAGGSLRLSCAASGRTFFSYTMGWYRQAPGKEREFVAAITTSGGYTHYADSVKGRFTISRDNAKNTVYLQMNSLIPEDTAVYYCAAVGRYPYKGYNYWGQGTQVTVSS”, “high polyreactivity”; with “QVQLVESGGVLVQAGGSLRLSCAASGRTLRWYAKGWYRPAPGKERELVAAINWSGTSTYYADSVKGRFTISRDNAKNTVYLQMNSLKPEDTAVYYCAKRVTWNYDWGQGTQVTVSS”, “high polyreactivity”.
As to “QVQLVESGGGLVQAGGSLRLSCAASGSIFWTYAMGWYRQAPGKERELVAGIRWSGGTTYADSVKGRFTISRDNAKNTVYLQMNSLKPEDTAVYYCNHYLSTYHGTFTYGYWGQGTQVTVSS”, the “polyreactivity (PSR sort gate)” value is listed as “low polyreactivity”.
With “QVQLVESGGGLVQAGGSLRLSCAASGRTFRNAMGWYRQEPVKEREFVATITWSGGSTYYADSVKGRFTISRDNAKNTVYLQMNSLKPEDTAVYYCAAEGRLWDWQRYDYWGQGTQVTVSS”, the “polyreactivity (PSR sort gate)” value is recorded as “low polyreactivity”.
To “QVQLVESGGGLVQAGGSLRLSCAASGSIFDFNAMGWYRQAPGKERELVAAIDDIDDSTYYSDSVKGRFTISRDNAKNTVYLQMNSLKPEDTAVYYCAAELRPGYRSSYGLIYDYWGQGTQVTVSS” belongs “low polyreactivity”; to “QVQQQESGGGLVQAGGSLRQSYAASGYIFPSLAMGWYRQAPGKEREFVAAIGRGSTNNYADSVKGRFTISRDNAKNTAYQQMNSLKPEDTAVYYSAAAASPLTRHLYWGQGTQVNVSS”, “low polyreactivity”.
As for “QVQLVESGGGLVQAGGSLRLSCAASGYTFGVYVMGWYRQAPGKERELVAAISGSTYYADSVKGRFTISRDNAKNTVYLQMNSLKPEDTAVYYCNADYYRSVLIIGVYEYDYWGQGTHVTVSS”, the “polyreactivity (PSR sort gate)” value is “low polyreactivity”.
Consider “QVQLVESGGGLVQAGGSLRLSCAASGSTFARNAMGWFRQAPGKEREFVASIRWGRGTTYYADSVKGRFTNSRDNAKNTLYLQLNSMIPEDSAVYYCATRNSSKRRGYYYWGQGTQVNVSS”, for which the “polyreactivity (PSR sort gate)” value was “high polyreactivity”.
As for “QFQLVESGGGLVQAGGSLRLSCAASGIILRGYAMGWYRQAPGKERELVASISRGGSTNYADSVKGRFTISRDNAKNTVYLQMNSLKPEDTAVYYSNARIWYYGRYQGAYRFDYWGQGTQVTVSS”, the “polyreactivity (PSR sort gate)” value is reported as “high polyreactivity”.
As for “QVQLVESGGGLVQAGGSLRLSCAASGRSFDRNAMGLYRQAPGKERELVADITSIGTRTYYADSVKGRFTISRDNAKNSVYLQMNSLKPEDTAVYYCAADYYYSYWYWFSSSYGYWGQGTQVTVSS”, the “polyreactivity (PSR sort gate)” value is reported as “high polyreactivity”.
In the case of “QVQHVESGGGIVQAGGSLRLSCAASGHIFFYYTMGWYRQAPGKERELVAGITIGGSTNYADSVKGRFTISRDNAKNTVYLQMNSLKPEDTAVYYCNVVKYVYIYSYWEYYYWGQGTQVTVSS”, the “polyreactivity (PSR sort gate)” value is given as “low polyreactivity”.
For the sequence “QVQLVESGGGLVQAGGSLRLSCAASGITFAVYTMGWYSQAPGKERELVAAITGSGGRTYYADSVKGRFTISRDNAKNTVYLQMNSLKPEDTAVYYCNAVQRSSRQTFEYWGQGTQVTVSS”, the “polyreactivity (PSR sort gate)” value is “low polyreactivity”.
As to “QVQLVESGGGLVQAGGSLRISCAASGSIFTAYAMGWYRQAPGKERELVAAITQSAGSTYADSVKGRFTISRDNAKNTVYLPMHSLNQEDTAVSYCAARYRYPYYARYGYWGQGTQVTVSS”, the “polyreactivity (PSR sort gate)” value is “high polyreactivity”.
With “QEQLQESGGGLVQAGGSQSLSCAASGIIFDWFFMGWYRQAPGREREFVAAITYGATTNYADSVKGRFTISRDNGKITVYLQMNSLKPEDCAVYYCAAASPLYWVDDFESGWRYYYWGQGTQVTVSS” the entry was “low polyreactivity”; with “QVQLVESGGGLVKAGGILSLSCAASGRTFAFYGMGSYRQAPGKERELVATIRGTGGSTYYADSVKGRFTISRDNAKNTVYLQMNSLKPEDTAVYYCAAVNRRYPRYDYWGLGTQVTVSS”, “high polyreactivity”; with “QVQLVESGGGLVQAGGSLRLSCAASGRTFPRNGMGWYRQAPGKERELGAGISSAGSTNYADSVKGRFTISRDNAKNTFYLHMNSLKPEDTAVYYCNAVLRRRWVTFYYWGQGTQVTVSS”, “high polyreactivity”.
